Test results reported in patent US20180148504A1.

Experiments:
[1] = target: endogenous folate receptor alpha in human serum and plasma samples (human) (UniProt P15328); assay: ECL sandwich capture 19D4.B7 / detection 2F11.F8; serum incubated overnight with 10 µg/mL MORAb-003
[2] = target: recombinant purified FRα (ECL assay calibrator) (human) (UniProt P15328); assay: ECL sandwich capture 24H8.F3 / detection 30G6.G6.G4.E9; calibrator incubated overnight with 10 µg/mL MORAb-003
[3] = target: recombinant purified FRα (ECL assay calibrator) (human) (UniProt P15328); assay: ECL sandwich competition; competitors 9F3 capture / 24F12 detection; FRα standard STD02; MORAb-003 10 µg/mL
[4] = target: recombinant purified FRα (ECL assay calibrator) (human) (UniProt P15328); assay: ECL sandwich capture 19D4.B7 / detection 28H12.G9; calibrator incubated overnight with 10 µg/mL MORAb-003
[5] = target: endogenous folate receptor alpha in human serum and plasma samples (human) (UniProt P15328); assay: ECL sandwich capture 24H8.D3 / detection 19D4.B7; serum incubated overnight with 10 µg/mL MORAb-003
[6] = target: recombinant purified FRα (ECL assay calibrator) (human) (UniProt P15328); assay: ECL sandwich capture 30G6.G6.G4.E9 / detection 24H8.F3; calibrator incubated overnight with 10 µg/mL MORAb-003
[7] = target: recombinant purified FRα (ECL assay calibrator) (human) (UniProt P15328); assay: ECL sandwich capture 1C6.E12.G8 / detection 19D4.B7; calibrator incubated overnight with 10 µg/mL MORAb-003
[8] = target: recombinant purified FRα (ECL assay calibrator) (human) (UniProt P15328); assay: ECL sandwich capture 6A2.G7 / detection 19D4.B7; calibrator incubated overnight with 10 µg/mL MORAb-003
[9] = target: recombinant purified FRα (ECL assay calibrator) (human) (UniProt P15328); assay: ECL sandwich competition; competitors 9F3 capture / 24F12 detection; FRα standard STD02; MORAb-003 50 µg/mL
[10] = target: recombinant purified FRα (ECL assay calibrator) (human) (UniProt P15328); assay: ECL sandwich capture 19D4.B7 / detection 5C12.H8; calibrator incubated overnight with 10 µg/mL MORAb-003
[11] = target: endogenous folate receptor alpha in human serum and plasma samples (human) (UniProt P15328); assay: ECL sandwich capture 28H12.G9 / detection 19D4.B7; serum incubated overnight with 10 µg/mL MORAb-003
[12] = target: endogenous folate receptor alpha in human serum and plasma samples (human) (UniProt P15328); assay: ECL sandwich capture 24H8.F3 / detection 30G6.G6.G4.E9; serum incubated overnight with 10 µg/mL MORAb-003
[13] = target: endogenous folate receptor alpha in human serum and plasma samples (human) (UniProt P15328); assay: ECL sandwich capture 19D4.B7 / detection 24H8.F3; serum incubated overnight with 10 µg/mL MORAb-003
[14] = target: endogenous folate receptor alpha in human serum and plasma samples (human) (UniProt P15328); assay: ECL sandwich capture 19D2.G9 / detection 19D4.B7; serum incubated overnight with 10 µg/mL MORAb-003
[15] = target: recombinant purified FRα (ECL assay calibrator) (human) (UniProt P15328); assay: ECL sandwich capture 19D4.B7 / detection 2F11.F8; calibrator incubated overnight with 10 µg/mL MORAb-003
[16] = target: recombinant purified FRα (ECL assay calibrator) (human) (UniProt P15328); assay: ECL sandwich capture 30G6.G6.G4.E9 / detection 2F11.F8; calibrator incubated overnight with 10 µg/mL MORAb-003
[17] = target: recombinant purified FRα (ECL assay calibrator) (human) (UniProt P15328); assay: ECL sandwich capture 19D2.G9 / detection 6A2.G7; calibrator incubated overnight with 10 µg/mL MORAb-003
[18] = target: recombinant purified FRα (ECL assay calibrator) (human) (UniProt P15328); assay: ECL sandwich competition; competitors 9F3 capture / 24F12 detection; FRα standard STD01; MORAb-003 10 µg/mL
[19] = target: recombinant purified FRα (ECL assay calibrator) (human) (UniProt P15328); assay: ECL sandwich capture 6A2.G7 / detection 1A8.G11.E7; calibrator incubated overnight with 10 µg/mL MORAb-003
[20] = target: endogenous folate receptor alpha in human serum and plasma samples (human) (UniProt P15328); assay: ECL sandwich capture 19D4.B7 / detection 1A8.G11.E7; serum incubated overnight with 10 µg/mL MORAb-003
[21] = target: recombinant purified FRα (ECL assay calibrator) (human) (UniProt P15328); assay: ECL sandwich competition; competitors 9F3 capture / 24F12 detection; FRα standard STD07; MORAb-003 50 µg/mL
[22] = target: endogenous folate receptor alpha in human serum and plasma samples (human) (UniProt P15328); assay: ECL sandwich capture 19D4.B7 / detection 24H8.D3; serum incubated overnight with 10 µg/mL MORAb-003
[23] = target: recombinant purified FRα (ECL assay calibrator) (human) (UniProt P15328); assay: ECL sandwich capture 19D2.G9 / detection 30G6.G6.G4.E9; calibrator incubated overnight with 10 µg/mL MORAb-003
[24] = target: endogenous folate receptor alpha in human serum and plasma samples (human) (UniProt P15328); assay: ECL sandwich capture 19D4.B7 / detection 1D2.G8.G10; serum incubated overnight with 10 µg/mL MORAb-003

Chain of recombinant purified FRα (ECL assay calibrator) (human) (P15328 25-234 limits assumed): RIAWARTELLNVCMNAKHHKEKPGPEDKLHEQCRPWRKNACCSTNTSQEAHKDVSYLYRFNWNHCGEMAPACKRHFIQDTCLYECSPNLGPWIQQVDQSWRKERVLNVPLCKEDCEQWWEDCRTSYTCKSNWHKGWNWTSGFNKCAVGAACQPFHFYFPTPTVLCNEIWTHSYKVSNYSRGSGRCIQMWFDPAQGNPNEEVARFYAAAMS
Chain of endogenous folate receptor alpha in human serum and plasma samples (human) (P15328 25-234 limits assumed, form in doubt): as the sequence (P15328 25-234 limits assumed) above

Drug suppression of serum [1]: 0.82%
Drug Suppression of Cal Signal at 500 pg/mL [2]: -6%
% of signal without MORAb-003 (MORAb-003 interference) [3]: 70%
Drug Suppression of Cal Signal at 500 pg/mL [4]: -21%
Drug suppression of serum [5]: -2.8%
Drug Suppression of Cal Signal at 500 pg/mL [6]: -8%
Drug Suppression of Cal Signal at 500 pg/mL [7]: -11%
Drug Suppression of Cal Signal at 500 pg/mL [8]: -13%
% of signal without MORAb-003 (MORAb-003 interference) [9]: 49%
Drug Suppression of Cal Signal at 500 pg/mL [10]: -10%
Drug suppression of serum [11]: -73.2%
Drug suppression of serum [12]: -0.93%
Drug suppression of serum [13]: -10.6%
Drug suppression of serum [14]: 4.68%
Drug Suppression of Cal Signal at 500 pg/mL [15]: -4%
Drug Suppression of Cal Signal at 500 pg/mL [16]: -1%
Drug Suppression of Cal Signal at 500 pg/mL [17]: -4%
% of signal without MORAb-003 (MORAb-003 interference) [18]: 68%
Drug Suppression of Cal Signal at 500 pg/mL [19]: 2%
Drug suppression of serum [20]: -4.92%
% of signal without MORAb-003 (MORAb-003 interference) [21]: 88%
Drug suppression of serum [22]: 4.49%
Drug Suppression of Cal Signal at 500 pg/mL [23]: -4%
Drug suppression of serum [24]: -2.12%
B1: farletuzumab (MORAb-003) (antibody, part only; not given: Constant regions, V domains shown, not shown: another chain or arm of the molecule)
VH: EVQLVESGGGVVQPGRSLRLSCSASGFTFSGYGLSWVRQAPGKGLEWVAMISSGGSYTYYADSVKGRFAISRDNAKNTLFLQMDSLRPEDTGVYFCARHGDDPAWFAYWGQGTPVTVSS
VL: DIQLTQSPSSLSASVGDRVTITCSVSSSISSNNLHWYQQKPGKAPKPWIYGTSNLASGVPSRFSGSGSGTDYTFTISSLQPEDIATYYCQQWSSYPYMYTFGQGTKVEIK
